The values below come from paper PMC10653890, “The morphogenic protein CopD controls the spatio-temporal dynamics of PBP1a and PBP2b in Streptococcus pneumoniae” (mBio, 2023).

In general, Kd refers to the free concentration of one partner at which half of the binding sites on the other are occupied at equilibrium, for simple one-to-one binding. Read a high Kd as weaker binding.

First the molecules themselves.
B2: CopDED, extracellular two-PEPSY domain of CopD (Met38 to Leu162) (domain or fragment)
chain: SMKPYQTAKSEGEKLAQQYAGLEQADQVDLYNGLESYYSVLGRNKQQEALAVLIGKDDHKIYVYQLNQGISQEKAETVSKEKGAGEIDKITFGRYQDKPIWEVKSGSDFYLVDFETGALVNKEGL
modifications: labelled with the Protein labeling kit red NHS 2nd generation (Nanotemper)

Assay [1] has as its target B2. In words: MST; Monolith NT.115; labelled CopDED at 168 nM, PBP2bTP 5.2 µM to 0.159 nM or PBP1aTP 4.5 µM to 0.137 nM; 20 mM HEPES pH 7.5, 300 mM NaCl, 10% glycerol, 0.1% Tween 20; 25°C. The following applies: both partners purified.
The target in assay [2] is T1, PBP1aTP, transpeptidase domain of PBP1a (Ser266 to Asn650) (S. pneumoniae R800 strain, UniProt Q8DR59 266-650).
T1 construct: also called PBP1aTP-6his; source: E. coli BL21 star (DE3), purified (Ni-NTA; extracellular domain digested by trypsin; gel filtration)
T1 sequence (looked up): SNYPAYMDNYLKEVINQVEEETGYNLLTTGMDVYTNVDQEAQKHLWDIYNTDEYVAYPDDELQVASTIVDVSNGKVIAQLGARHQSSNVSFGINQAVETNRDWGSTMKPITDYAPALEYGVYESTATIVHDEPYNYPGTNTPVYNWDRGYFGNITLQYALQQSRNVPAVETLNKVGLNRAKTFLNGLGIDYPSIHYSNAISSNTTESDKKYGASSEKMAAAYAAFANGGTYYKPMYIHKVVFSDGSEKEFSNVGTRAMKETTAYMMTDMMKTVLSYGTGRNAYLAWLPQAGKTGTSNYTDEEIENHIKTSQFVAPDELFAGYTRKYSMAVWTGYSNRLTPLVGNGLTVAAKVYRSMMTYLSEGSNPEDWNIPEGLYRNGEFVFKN
Described as above. To be noted: both partners purified.

B1: PBP2bTP, transpeptidase domain of PBP2b (Met39 to Asn685) (domain or fragment)
chain: MQVLNKDFYEKKLASASQTKITSSSARGEIYDASGKPLVENTLKQVVSFTRSNKMTATDLKETAKKLLTYVSISSPNLTERQLADYYLADPEIYKKIVEALPSEKRLDSDGNRLSESELYNNAVDSVQTSQLNYTEDEKKEIYLFSQLNAVGNFATGTIATDPLNDSQVAVIASISKEMPGISISTSWDRKVLETSLSSIVGSVSSEKAGLPAEEAEAYLKKGYSLNDRVGTSYLEKQYEETLQGKRSVKEIHLDKYGNMESVDTIEEGSKGNNIKLTIDLAFQDSVDALLKSYFNSELENGGAKYSEGVYAVALNPKTGAVLSMSGIKHDLKTGELTPDSLGTVTNVFVPGSVVKAATISSGWENGVLSGNQTLTDQSIVFQGSAPINSWYTQAYGSFPITAVQALEYSSNTYMVQTALGLMGQTYQPNMFVGTSNLESAMEKLRSTFGEYGLGTATGIDLPDESTGFVPKEYSFANYITNAFGQFDNYTPMQLAQYVATIANNGVRVAPRIVEGIYGNNDKGGLGDLIQQLQPTEMNKVNISDSDMSILHQGFYQVAHGTSGLTTGRAFSNGALVSISGKTGTAESYVADGQQATNTNAVAYAPSDNPQIAVAVVFPHNTNLTNGVGPSIARDIINLYQKYHPMN
In assay [1], B1 registered a Kd greater than 10 µM. For B2, in assay [2], the Kd was greater than 10 µM.
